The source of these data is patent US20180230214A1 (Memorial Sloan Kettering, published 2018).

Numbering of substitutions follows the chain as printed.

To fix the notation:
B1: m906 anti-CD56 Fab (Fab, V domains shown)
VH: EVQLVQSGAEVKKPGSSVKVSCKASGGTFTGYYMHWVRQAPGQGLEWMGWINPNSGGTNYAQKFQGRVTMTRDTSISTAYMELSRLRSDDTAVYYCARDLSSGYSGYFDYWGQGTLVTVSS
VL: DVVMTQSPLSLPVTPGEPASISCRSSQSLLHSNGYNFLDWYLQKPGQSPQLLIYLGSNRASGVPDRFSGSGSGTDFTLKISRVEADDVGVYYCMQSLQTPWTFGHGTKVEIKR
notes: Human Fab from light chain shuffling of a phage display clone; also called Fab46-19
B2: m903 anti-CD56 Fab (Fab, V domains shown)
VH: B1 VH
VL: not shown
notes: Human Fab from light chain shuffling of a phage display clone; also called Fab46-E5
B3: m904 anti-CD56 Fab (Fab, V domains shown)
VH: B1 VH
VL: not shown
notes: Human Fab from light chain shuffling of a phage display clone; also called Fab46-H3
B4: m905 anti-CD56 Fab (Fab, V domains shown)
VH: B1 VH
VL: B1 VL with F37Y, D39N, A85G, D86E, V90D, S96A, T99S, W101F, H105Q, V109L
notes: Human Fab from light chain shuffling of a phage display clone; also called Fab46-8

The target of this assay is T1, human CD56 (human, UniProt P13591 20-718, limits assumed).
T1 construct: also called neural cell adhesion molecule
Kind of assay: Biacore (surface plasmon resonance), Fab. From the text: CD56 Fab selection: CD56-binding Fabs were selected with phage display technology in two steps, as previously described (Feng, et al. A novel human monoclonal antibody that binds with high affinity to mesothelin-expressing cells and kills them by antibody-dependent cell-mediated cytotoxicity. Mol Cancer Ther. 8(5):1113-1118 (2009)). Firstly, CD56 Fabs were identified by panning and screening of a large naïve human antibody library through multiple rounds of binding and amplification. In the second step, the selected clone with the best in vitro and in vivo binding property was affinity matured through a light chain shuffling process, where the VH of the clone was combined with the VL repertoire from the original library. The sub-library was further panned and screened with CD56 to obtain Fab clones with the same epitope but different affinities. Binding of the Fabs was confirmed with ELISA and affinities estimated with Surface Plasmon Resonance method on a Biacore Processing unit X100.
One may read the Kd as the constant that tells how readily two partners part at equilibrium. The low end stands for a tighter complex, the high end for a looser complex. Consider B1, for which the dissociation constant (Kd) came out at 4.49 nM.

Turning to B2, binding was characterised by a dissociation constant (Kd) of 236 nM.

Take B3: binding was put at a Kd of 90.9 nM.

In turn, B4 returned a Kd of 9.17 nM.
